The values below are quoted from earlier work in publication PMC8256087.

The target in the series is FtsY (Escherichia coli) (UniProt P10121).

pKd: −log10 of the molar value.

Sequence of SecYEG translocon (P0AGA2 whole entry): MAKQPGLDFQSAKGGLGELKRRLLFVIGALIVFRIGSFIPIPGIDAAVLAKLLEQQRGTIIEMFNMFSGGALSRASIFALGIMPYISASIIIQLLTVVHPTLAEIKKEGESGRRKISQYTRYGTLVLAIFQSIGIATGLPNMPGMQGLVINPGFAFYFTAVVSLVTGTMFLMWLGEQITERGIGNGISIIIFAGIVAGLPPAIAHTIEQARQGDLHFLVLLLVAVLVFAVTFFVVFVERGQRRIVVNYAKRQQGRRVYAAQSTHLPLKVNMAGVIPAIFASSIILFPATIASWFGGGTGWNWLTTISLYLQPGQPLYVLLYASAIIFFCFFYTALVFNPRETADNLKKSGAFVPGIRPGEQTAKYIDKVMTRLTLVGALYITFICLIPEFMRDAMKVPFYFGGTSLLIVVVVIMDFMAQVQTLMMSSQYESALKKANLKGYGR
Sequence of SecYEG translocon (P0AG96 whole entry, further chain): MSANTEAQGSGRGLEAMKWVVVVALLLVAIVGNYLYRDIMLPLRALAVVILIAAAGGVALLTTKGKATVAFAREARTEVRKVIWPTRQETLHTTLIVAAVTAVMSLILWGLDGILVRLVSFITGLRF
Sequence of SecYEG translocon (P0AG99 whole entry, further chain): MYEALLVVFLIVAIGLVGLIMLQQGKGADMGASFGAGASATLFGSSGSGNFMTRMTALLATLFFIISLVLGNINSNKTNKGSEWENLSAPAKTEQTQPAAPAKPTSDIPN
Sequence of FtsY (Escherichia coli) (P10121 2-497): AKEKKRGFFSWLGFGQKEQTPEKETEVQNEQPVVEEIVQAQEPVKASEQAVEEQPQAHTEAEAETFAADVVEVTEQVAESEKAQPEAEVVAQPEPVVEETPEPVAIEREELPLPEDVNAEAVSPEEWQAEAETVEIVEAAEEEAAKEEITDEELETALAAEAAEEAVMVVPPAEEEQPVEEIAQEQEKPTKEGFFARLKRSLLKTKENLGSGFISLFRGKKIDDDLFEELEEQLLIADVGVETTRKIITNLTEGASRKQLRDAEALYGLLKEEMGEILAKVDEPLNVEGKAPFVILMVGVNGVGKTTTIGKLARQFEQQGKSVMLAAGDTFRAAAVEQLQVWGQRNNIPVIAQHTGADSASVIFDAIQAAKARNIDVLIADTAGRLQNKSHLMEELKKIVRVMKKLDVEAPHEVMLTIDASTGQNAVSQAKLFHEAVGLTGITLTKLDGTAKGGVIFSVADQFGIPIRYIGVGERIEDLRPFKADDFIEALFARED

Consider SecYEG translocon (from UniProt P0AGA2), for which the pKd is 6.70.
